Laboratory results published in the supplement of paper PMC5998384.

What was measured:
[1] = system: HeLa Kyoto; test: solubility in G1/S (NP-40 vs SDS abundance) (log2 ratio); higher = more soluble; settings: cell cycle stage: G1/S
[2] = system: HeLa Kyoto; test: solubility change mitosis vs G1/S (difference of NP-40 vs SDS log2 ratios) (log2 ratio difference); higher = more soluble in mitosis
[3] = system: HeLa Kyoto; test: melting temperature (median over replicates), in situ; higher = more thermally stable
[4] = system: HeLa Kyoto; test: thermal stability score vs G1/S (z-score of summed log2 fold changes over temperatures); higher = more thermally stable than in G1/S
[5] = cell cycle stage: early G1 (4.5 h after nocodazole release)
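For melting temperature (median over replicates), in situ in this document: HeLa Kyoto cells synchronized by double thymidine or nocodazole block, proteins quantified by TMT10plex mass spectrometry, three independent biological replicates.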
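For solubility change mitosis vs G1/S (difference of NP-40 vs SDS log2 ratios) in this document: synchronized HeLa Kyoto cells (double thymidine block for G1/S, nocodazole release for mitosis), protein amounts in NP-40 versus SDS lysates quantified by mass spectrometry, three biological replicates.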
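For solubility in G1/S (NP-40 vs SDS abundance) in this document: HeLa Kyoto cells arrested at G1/S by double thymidine block, proteins quantified by TMT10plex mass spectrometry in mild NP-40 versus SDS extracts, three biological replicates.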
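For thermal stability score vs G1/S (z-score of summed log2 fold changes over temperatures) in this document: synchronized HeLa Kyoto cells, proteins quantified by TMT10plex mass spectrometry, three biological replicates, mitosis taken 0.5 h after nocodazole release, G1/S directly after double thymidine block.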

Sequence of TLK2 (chain, as listed by the source): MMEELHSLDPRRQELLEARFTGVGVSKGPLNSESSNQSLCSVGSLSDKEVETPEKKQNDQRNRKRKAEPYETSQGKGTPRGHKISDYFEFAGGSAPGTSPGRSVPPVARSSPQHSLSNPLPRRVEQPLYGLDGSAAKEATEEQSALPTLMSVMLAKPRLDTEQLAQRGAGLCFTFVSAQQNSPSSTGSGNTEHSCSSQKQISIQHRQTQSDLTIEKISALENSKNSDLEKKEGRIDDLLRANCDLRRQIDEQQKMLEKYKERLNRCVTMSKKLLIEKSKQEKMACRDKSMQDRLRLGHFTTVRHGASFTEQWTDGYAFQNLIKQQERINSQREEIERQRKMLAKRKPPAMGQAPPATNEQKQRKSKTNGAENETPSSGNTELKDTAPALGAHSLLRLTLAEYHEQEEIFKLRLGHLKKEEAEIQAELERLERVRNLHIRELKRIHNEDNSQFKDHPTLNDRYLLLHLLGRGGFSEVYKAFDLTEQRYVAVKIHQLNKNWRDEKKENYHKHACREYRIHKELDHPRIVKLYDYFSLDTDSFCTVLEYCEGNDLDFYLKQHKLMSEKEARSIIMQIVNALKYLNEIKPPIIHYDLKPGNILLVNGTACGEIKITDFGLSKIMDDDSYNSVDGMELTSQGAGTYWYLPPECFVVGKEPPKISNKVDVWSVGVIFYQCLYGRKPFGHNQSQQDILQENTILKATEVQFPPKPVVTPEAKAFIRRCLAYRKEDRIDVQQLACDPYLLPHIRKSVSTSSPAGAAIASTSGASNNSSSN

Row | Substance | solubility in G1/S (log2) [1] | solubility change mitosis (log2) [2] | melting temperature ([3]; cell cycle stage: G1/S) [°C] | melting temperature ([3]; cell cycle stage: mitosis) [°C] | thermal stability score [4, 5] | thermal stability score ([4]; cell cycle stage: mitosis)
1 | MAAAAQLSLTQLSSGNPVYEKYYRQVDTGNTGRVLASDAAAFLKKSGLPDLILGKIWDLADTDGKGILNKQEFFVALRLVACAQNGLEVSLSSLNLAVPPPRFHDTSSPLLISGTSAAELPWAVKPEDKAKYDAIFDSLSPVNGFLSGDKVKPVLLNSKLPVDILGRVWELSDIDHDGMLDRDEFAVAMFLVYCALEKEPVPMSLPPALVPPSKRKTWVVSPAEKAKYDEIFLKTDKDMDGFVSGLEVREIFLKTGLPSTLLAHIWSLCDTKDCGKLSKDQFALAFHLISQKLIKGIDPPHVLTPEMIPPSDRASLQKNIIGSSPVADFSAIKELDTLNNEIVDLQREKNNVEQDLKEKEDTIKQRTSEVQDLQDEVQRENTNLQKLQAQKQQVQELLDELDEQKAQLEEQLKEVRKKCAEEAQLISSLKAELTSQESQISTYEEELAKAREELSRLQQETAELEESVESGKAQLEPLQQHLQDSQQEISSMQMKLMEMKDLENHNSQLNWCSSPHSILVNGATDYCSLSTSSSETANLNEHVEGQSNLESEPIHQESPARSSPELLPSGVTDENEVTTAVTEKVCSELDNNRHSKEEDPFNVDSSSLTGPVADTNLDFFQSDPFVGSDPFKDDPFGKIDPFGGDPFKGSDPFASDCFFRQSTDPFATSSTDPFSAANNSSITSVETLKHNDPFAPGGTVVAASDSATDPFASVFGNESFGGGFADFSTLSKVNNEDPFRSATSSSVSNVVITKNVFEETSVKSEDEPPALPPKIGTPTRPCPLPPGKRSINKLDSPDPFKLNDPFQPFPGNDSPKEKDPEIFCDPFTSATTTTNKEADPSNFANFSAYPSEEDMIEWAKRESEREEEQRLARLNQQEQEDLELAIALSKSEISEA [EPS15] | 0.2 | -0.117 | 51 | 51.5 | 0.399 | 1.19
2 | TLK2 | -0.0304 | -0.141 | 50.9 | 52.2 | 1.27 | 1.41
3 | MNYDSQQPPLPPLPYAGCRRASGFPALGRGGTVPVGVWGGAGQGREGRSWGEGPRGPGLGRRDLSSADPAVLGATMESRCYGCAVKFTLFKKEYGCKNCGRAFCSGCLSFSAAVPRTGNTQQKVCKQCHEVLTRGSSANASKWSPPQNYKKRVAALEAKQKPSTSQSQGLTRQDQMIAERLARLRQENKPKLVPSQAEIEARLAALKDERQGSIPSTQEMEARLAALQGRVLPSQTPQPAHHTPDTRTQAQQTQDLLTQLAAEVAIDESWKGGGPAASLQNDLNQGGPGSTNSKRQANWSLEEEKSRLLAEAALELREENTRQERILALAKRLAMLRGQDPERVTLQDYRLPDSDDDEDEETAIQRVLQQLTEEASLDEASGFNIPAEQASRPWTQPRGAEPEAQDVDPRPEAEEEELPWCCICNEDATLRCAGCDGDLFCARCFREGHDAFELKEHQTSAYSPPRAGQEH [ZFYVE19] | 0.428 | -0.237 | 54.2 | 52.9 | -2.39 | -1.86
4 | MALQLGRLSSGPCWLVARGGCGGPRAWSQCGGGGLRAWSQRSAAGRVCRPPGPAGTEQSRGLGHGSTSRGGPWVGTGLAAALAGLVGLATAAFGHVQRAEMLPKTSGTRATSLGRPEEEEDELAHRCSSFMAPPVTDLGELRRRPGDMKTKMELLILETQAQVCQALAQVDGGANFSVDRWERKEGGGGISCVLQDGCVFEKAGVSISVVHGNLSEEAAKQMRSRGKVLKTKDGKLPFCAMGVSSVIHPKNPHAPTIHFNYRYFEVEEADGNKQWWFGGGCDLTPTYLNQEDAVHFHRTLKEACDQHGPDLYPKFKKWCDDYFFIAHRGERRGIGGIFFDDLDSPSKEEVFRFVQSCARAVVPSYIPLVKKHCDDSFTPQEKLWQQLRRGRYVEFNLLYDRGTKFGLFTPGSRIESILMSLPLTARWEYMHSPSENSKEAEILEVLRHPRDWVR [CPOX] | 0.131 | -0.135 | 55 | 55 | -0.749 | -1.47
5 | MESAIAEGGASRFSASSGGGGSRGAPQHYPKTAGNSEFLGKTPGQNAQKWIPARSTRRDDNSAANNSANEKERHDAIFRKVRGILNKLTPEKFDKLCLELLNVGVESKLILKGVILLIVDKALEEPKYSSLYAQLCLRLAEDAPNFDGPAAEGQPGQKQSTTFRRLLISKLQDEFENRTRNVDVYDKRENPLLPEEEEQRAIAKIKMLGNIKFIGELGKLDLIHESILHKCIKTLLEKKKRVQLKDMGEDLECLCQIMRTVGPRLDHERAKSLMDQYFARMCSLMLSKELPARIRFLLQDTVELREHHWVPRKAFLDNGPKTINQIRQDAVKDLGVFIPAPMAQGMRSDFFLEGPFMPPRMKMDRDPLGGLADMFGQMPGSGIGTGPGVIQDRFSPTMGRHRSNQLFNGHGGHIMPPTQSQFGEMGGKFMKSQGLSQLYHNQSQGLLSQLQGQSKDMPPRFSKKGQLNADEISLRPAQSFLMNKNQVPKLQPQITMIPPSAQPPRTQTPPLGQTPQLGLKTNPPLIQEKPAKTSKKPPPSKEELLKLTETVVTEYLNSGNANEAVNGVREMRAPKHFLPEMLSKVIILSLDRSDEDKEKASSLISLLKQEGIATSDNFMQAFLNVLDQCPKLEVDIPLVKSYLAQFAARAIISELVSISELAQPLESGTHFPLFLLCLQQLAKLQDREWLTELFQQSKVNMQKMLPEIDQNKDRMLEILEGKGLSFLFPLLKLEKELLKQIKLDPSPQTIYKWIKDNISPKLHVDKGFVNILMTSFLQYISSEVNPPSDETDSSSAPSKEQLEQEKQLLLSFKPVMQKFLHDHVDLQVSALYALQVHCYNSNFPKGMLLRFFVHFYDMEIIEEEAFLAWKEDITQEFPGKGKALFQVNQWLTWLETAEEEESEEEAD [EIF4G2] | 0.402 | 0.0198 | 48.4 | 48.3 | 1.01 | 3.88
6 | MATAMDWLPWSLLLFSLMCETSAFYVPGVAPINFHQNDPVEIKAVKLTSSRTQLPYEYYSLPFCQPSKITYKAENLGEVLRGDRIVNTPFQVLMNSEKKCEVLCSQSNKPVTLTVEQSRLVAERITEDYYVHLIADNLPVATRLELYSNRDSDDKKKEKDVQFEHGYRLGFTDVNKIYLHNHLSFILYYHREDMEEDQEHTYRVVRFEVIPQSIRLEDLKADEKSSCTLPEGTNSSPQEIDPTKENQLYFTYSVHWEESDIKWASRWDTYLTMSDVQIHWFSIINSVVVVFFLSGILSMIIIRTLRKDIANYNKEDDIEDTMEESGWKLVHGDVFRPPQYPMILSSLLGSGIQLFCMILIVIFVAMLGMLSPSSRGALMTTACFLFMFMGVFGGFSAGRLYRTLKGHRWKKGAFCTATLYPGVVFGICFVLNCFIWGKHSSGAVPFPTMVALLCMWFGISLPLVYLGYYFGFRKQPYDNPVRTNQIPRQIPEQRWYMNRFVGILMAGILPFGAMFIELFFIFSAIWENQFYYLFGFLFLVFIILVVSCSQISIVMVYFQLCAEDYRWWWRNFLVSGGSAFYVLVYAIFYFVNKLDIVEFIPSLLYFGYTALMVLSFWLLTGTIGFYAAYMFVRKIYAAVKID [TM9SF4] | -0.198 | -0.228 | 52.5 | 53.3 | 1.93 | 4.73
7 | MSVDMNSQGSDSNEEDYDPNCEEEEEEEEDDPGDIEDYYVGVASDVEQQGADAFDPEEYQFTCLTYKESEGALNEHMTSLASVLKVSHSVAKLILVNFHWQVSEILDRYKSNSAQLLVEARVQPNPSKHVPTSHPPHHCAVCMQFVRKENLLSLACQHQFCRSCWEQHCSVLVKDGVGVGVSCMAQDCPLRTPEDFVFPLLPNEELREKYRRYLFRDYVESHYQLQLCPGADCPMVIRVQEPRARRVQCNRCNEVFCFKCRQMYHAPTDCATIRKWLTKCADDSETANYISAHTKDCPKCNICIEKNGGCNHMQCSKCKHDFCWMCLGDWKTHGSEYYECSRYKENPDIVNQSQQAQAREALKKYLFYFERWENHNKSLQLEAQTYQRIHEKIQERVMNNLGTWIDWQYLQNAAKLLAKCRYTLQYTYPYAYYMESGPRKKLFEYQQAQLEAEIENLSWKVERADSYDRGDLENQMHIAEQRRRTLLKDFHDT [ARIH2] | -0.242 | -0.151 | 51.8 | 52.3 | 0.643 | -0.0869
8 | ITSN1 | 0.0319 | -0.0764 | 49.5 | 50.2 | -0.00548 | 0.39
9 | MLWSGCRRFGARLGCLPGGLRVLVQTGHRSLTSCIDPSMGLNEEQKEFQKVAFDFAAREMAPNMAEWDQKELFPVDVMRKAAQLGFGGVYIQTDVGGSGLSRLDTSVIFEALATGCTSTTAYISIHNMCAWMIDSFGNEEQRHKFCPPLCTMEKFASYCLTEPGSGSDAASLLTSAKKQGDHYILNGSKAFISGAGESDIYVVMCRTGGPGPKGISCIVVEKGTPGLSFGKKEKKVGWNSQPTRAVIFEDCAVPVANRIGSEGQGFLIAVRGLNGGRINIASCSLGAAHASVILTRDHLNVRKQFGEPLASNQYLQFTLADMATRLVAARLMVRNAAVALQEERKDAVALCSMAKLFATDECFAICNQALQMHGGYGYLKDYAVQQYVRDSRVHQILEGSNEVMRILISRSLLQE [ACAD8] | -0.0509 | -0.0672 | 54.9 | 55.2 | -0.89 | -3.82
